Where a chain is given by its changes, count along the chain named. Numbers in names are those of the source.
B1: His-ISG65 18-363 T297A (receptor)
chain: MGSSHHHHHHSSGLVPRGSHMLLVIGSEDNRVPGDKKLTKEGAAALCKMKHLADKVAKERSQELKDRTQNFAGYIEFELYRIDYWLEKLNGPKGRKDGYAKLSDSDIEKVKEIFNKAKDGITKQLPEAKKAGEEAGKLHTEVKKAAENARGQDLDDDTAKSTGLYRVLNWYCITKEERHNATPNCDGIQFRKHYLSVNRSAIDCSSTSYEENYDWSANALQVALNSWEDVKPKKLESAGSDKNCNIGQSSESHPCTMTEEWQTPYKETVEKLRELEDAYQRGKKAHDAMLGYANTAYAVNAKVEQEKPLTEVIAAAKEAGKKGAKIIIPAAAPATPTNSTKNDDSAPTEHVDRGIATNETQVEVGID
notes: also called ISG65 T297A
B2: His-ISG65 18-363 W211A (receptor)
chain: B1 chain with W215A, A301T
notes: also called ISG65 W211A
B3: His-ISG65 18-363 Y70A (receptor)
chain: B1 chain with Y74A, A301T
notes: also called ISG65 Y70A
B4: ISG65 M2 (thermostable mutant of the ISG65 extracellular domain 18-363 with N-terminal His-tag) (receptor)
chain: MGSSHHHHHHSSGLVPRGSHMLLVIGSEDNRVPGDKKLTKEGAAALCKMKHLADKVAKERSQELKDRTQNFAGYIEFELYRIDYWLEKLNGPKGRKDGYAKLSDSDIKKVKEIFEKAKDGITKQLPEAKKAAEEAEKLHQEVKEAAEKARGQDLDDDTAKSTGLYRVLNWYCITKEERHNATPNCDGIQFRKHYLSVNRSAIDCSSTSYEENYDWSANALQVALNSWEDKKPKKLESAGSDKNCNIGQSSESHPCTMTEEWQTHYKETIEKLRELEEAYQRGKKAHDDMLGYANTAYAVNTKVEQEKPLSEVIAAAKEAGKKGAKIIIPAAAPATPTNSTKNDDSAPTEHVDRGIATNETQVEVGID

Assays:
[1] = target: His-C3d N1134A (human) (UniProt P01024); experiment: SPR BIAcore T200, biotinylated ISG65-Avi immobilised, C3d N1134A as analyte; koff1
Chain of His-C3d N1134A (human) (P01024 996-1303, stated change not applied): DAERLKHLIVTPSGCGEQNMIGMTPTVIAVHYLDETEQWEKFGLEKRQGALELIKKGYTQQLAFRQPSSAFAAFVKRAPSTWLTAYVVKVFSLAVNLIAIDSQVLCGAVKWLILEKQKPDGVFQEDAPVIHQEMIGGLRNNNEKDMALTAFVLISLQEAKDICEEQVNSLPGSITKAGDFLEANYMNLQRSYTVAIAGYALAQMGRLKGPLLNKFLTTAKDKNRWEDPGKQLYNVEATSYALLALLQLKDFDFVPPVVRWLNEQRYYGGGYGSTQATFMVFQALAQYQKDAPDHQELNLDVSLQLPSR

[2] = target: His-C3d N1134A (human) (UniProt P01024); experiment: SPR BIAcore T200, biotinylated ISG65-Avi immobilised, C3d N1134A as analyte
[3] = target: His-C3d N1134A (human) (UniProt P01024); experiment: SPR BIAcore T200, biotinylated ISG65-Avi immobilised, C3d N1134A as analyte; kon1
[4] = target: His-C3d N1134A (human) (UniProt P01024); experiment: SPR, relative to wild type C3d
[5] = target: T1, His-C3d-Avi, biotinylated (human complement C3d with N-terminal His-tag and C-terminal Avi-tag) (human, UniProt P01024 996-1303, site-specific biotinylation of the C-terminal Avi-tag); experiment: SPR, relative to wild type ISG65
T1 construct: domain: C3d; SPR ligand for the ISG65 mutants; not shown: N-terminal His-tag (pET15b); C-terminal Avi-tag
T1 sequence (P01024 996-1303 limits assumed): as the sequence (P01024 996-1303, stated change not applied) above

[6] = target: T1, His-C3d-Avi, biotinylated (human …); experiment: SPR BIAcore T200, biotinylated C3d-Avi immobilised, ISG65 mutant as analyte; kon1
[7] = target: T1, His-C3d-Avi, biotinylated (human …); experiment: SPR BIAcore T200, biotinylated C3d-Avi immobilised, ISG65 mutant as analyte; koff1
[8] = target: T1, His-C3d-Avi, biotinylated (human …); experiment: SPR BIAcore T200, biotinylated C3d-Avi immobilised, ISG65 mutant as analyte
[9] = target: T1, His-C3d-Avi, biotinylated (human …); experiment: SPR BIAcore T200, biotinylated C3d-Avi immobilised, ISG65 mutant as analyte; kon1; kon1, first step of the two-step fit
[10] = target: T1, His-C3d-Avi, biotinylated (human …); experiment: SPR BIAcore T200, biotinylated C3d-Avi immobilised, ISG65 mutant as analyte; overall KD of a two-step fit (kon1, kon2, koff1, koff2)
[11] = target: T1, His-C3d-Avi, biotinylated (human …); experiment: SPR BIAcore T200, biotinylated C3d-Avi immobilised, ISG65 mutant as analyte; koff1; koff1, first step of the two-step fit
[12] = target: C3b (human complement C3b) (human, UniProt P01024 23-667; P01024 749-1663); experiment: cell-based or functional assay
Chain of C3b (human complement C3b) (P01024 23-667 limits assumed, chain 1 of 2): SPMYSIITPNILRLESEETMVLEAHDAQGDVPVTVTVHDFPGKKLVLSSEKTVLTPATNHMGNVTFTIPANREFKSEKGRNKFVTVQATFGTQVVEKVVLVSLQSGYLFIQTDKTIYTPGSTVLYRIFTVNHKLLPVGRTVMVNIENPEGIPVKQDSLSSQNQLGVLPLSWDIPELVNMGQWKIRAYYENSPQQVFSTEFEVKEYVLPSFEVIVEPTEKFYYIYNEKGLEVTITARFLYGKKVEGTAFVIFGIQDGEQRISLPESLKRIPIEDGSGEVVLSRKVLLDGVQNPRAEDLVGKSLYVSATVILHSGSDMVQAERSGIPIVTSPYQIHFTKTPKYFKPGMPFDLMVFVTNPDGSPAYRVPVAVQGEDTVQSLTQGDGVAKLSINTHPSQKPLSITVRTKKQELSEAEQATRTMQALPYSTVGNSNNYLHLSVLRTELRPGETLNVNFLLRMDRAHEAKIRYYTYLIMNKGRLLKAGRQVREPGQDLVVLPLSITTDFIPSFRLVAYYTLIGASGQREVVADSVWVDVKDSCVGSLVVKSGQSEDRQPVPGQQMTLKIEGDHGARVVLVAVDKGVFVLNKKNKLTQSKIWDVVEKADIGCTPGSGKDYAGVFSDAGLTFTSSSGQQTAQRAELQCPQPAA
Chain of C3b (human complement C3b) (P01024 749-1663 limits assumed, chain 2 of 2): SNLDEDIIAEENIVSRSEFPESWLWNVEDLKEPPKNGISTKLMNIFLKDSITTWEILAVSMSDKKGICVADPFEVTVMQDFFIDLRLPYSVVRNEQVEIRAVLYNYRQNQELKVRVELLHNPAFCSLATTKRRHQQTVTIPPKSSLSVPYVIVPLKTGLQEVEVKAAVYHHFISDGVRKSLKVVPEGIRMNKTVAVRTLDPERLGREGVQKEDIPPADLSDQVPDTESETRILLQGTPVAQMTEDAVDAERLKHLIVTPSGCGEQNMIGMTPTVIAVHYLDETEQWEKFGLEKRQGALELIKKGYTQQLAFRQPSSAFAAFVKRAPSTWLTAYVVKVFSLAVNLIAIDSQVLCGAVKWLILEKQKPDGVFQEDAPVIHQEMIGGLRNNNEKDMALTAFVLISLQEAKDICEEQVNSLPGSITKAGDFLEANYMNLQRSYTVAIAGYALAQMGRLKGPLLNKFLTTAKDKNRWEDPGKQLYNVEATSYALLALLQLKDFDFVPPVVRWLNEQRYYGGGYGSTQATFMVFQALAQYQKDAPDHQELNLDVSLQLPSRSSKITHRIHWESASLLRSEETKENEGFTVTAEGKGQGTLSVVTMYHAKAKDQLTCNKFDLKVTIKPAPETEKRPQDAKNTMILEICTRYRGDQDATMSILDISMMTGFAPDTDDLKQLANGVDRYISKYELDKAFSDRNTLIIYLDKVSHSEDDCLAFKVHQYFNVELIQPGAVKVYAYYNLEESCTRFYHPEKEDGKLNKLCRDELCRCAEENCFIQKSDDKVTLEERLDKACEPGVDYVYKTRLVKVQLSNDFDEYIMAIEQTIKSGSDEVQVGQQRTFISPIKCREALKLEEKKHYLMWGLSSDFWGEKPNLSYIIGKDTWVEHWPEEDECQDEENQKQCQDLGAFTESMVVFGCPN

Molecule	C3d binding (%) [5]	koff2 [8]	kon [9]	Kd [10]	koff [11]	also measured
His-ISG65 18-363-Avi, biotinylated at the C-terminal Avi-tag (receptor)						koff [1]: 0.0542 s⁻¹; Kd [2]: 28.6 nM; kon [3]: 1.89e+06 M⁻¹ s⁻¹; ISG65 binding (%) [4]: 25%
B1	15%	0.002 s⁻¹				kon [6]: 171000 M⁻¹ s⁻¹; koff [7]: 0.05 s⁻¹; Kd [8]: 182 nM
B2	42%	0.39 s⁻¹	320000 M⁻¹ s⁻¹	66.8 nM	0.16 s⁻¹	
B3	36%	0.58 s⁻¹	118000 M⁻¹ s⁻¹	78.2 nM	0.14 s⁻¹	
B4						relative AP50 of human plasma, day 0 [12]: 15 fold
